{"source": "patent US20230365709A1", "about": "(published 2023)", "binders": {"B1": {"name": "1Fab-AFc-1Fab-6 (bispecific antibody, human IgG1, kappa)", "chain 1": "DIVMTQSPATLSLSPGERATLSCRSSKSLQNVNGNTYLYWFQQKPGQSPQLLIYRMSNLNSGVPDRFSGSGSGTEFTLTISSLEPEDFAVYYCMQHLEYPITFGAGTKLEIKRTVAAPSVFIFPPSDEQLKSGTASVVCLLNNFYPREAKVQWKVDNALQSGNSQESVTEQDSKDSTYSLSSTLTLSKADYEKHKVYACEVTHQGLSSPVTKSFNRGECDKTHTCPPCPAPELLGGPDVFLFPPKPKDTLMISRTPEVTCVVVDVSHEDPEVKFNWYVDGVEVHNAKTKPREEQYNSTYRVVSVLTVLHQDWLNGKEYKCKVSNKALPAPEEKTISKAKGQPREPQVYTLPPSREEMTKNQVSLWCLVKGFYPSDIAVEWESNGQPENNYKTTPPVLDSDGSFFLYSKLTVDKSRWQQGNVFSCSVMHEALHNHYTQKSLSLSPGK", "chain 2": "EVQLVESGGGLVKPGGSLKLSCAASGYTFTSYVMHWVRQAPGKGLEWIGYINPYNDGTKYNEKFQGRVTISSDKSISTAYMELSSLRSEDTAMYYCARGTYYYGTRVFDYWGQGTLVTVSSASTKGPSVFPLAPSSKSTSGGTAALGCLVKDYFPEPVTVSWNSGALTSGVHTFPAVLQSSGLYSLSSVVTVPSSSLGTQTYICNVNHKPSNTKVDKKVEPKSCDKTHTCPPCPAPELLGGPDVFLFPPKPKDTLMISRTPEVTCVVVDVSHEDPEVKFNWYVDGVEVHNAKTKPREEQYNSTYRVVSVLTVLHQDWLNGKEYKCKVSNKALPAPEEKTISKAKGQPREPQVYTLPPSREEMTKNQVSLSCAVKGFYPSDIAVEWESNGQPENNYKTTPPVLDSDGSFFLVSKLTVDKSRWQQGNVFSCSVMHEALHNHYTQKSLSLSPGSTGSEVQLQQSGPELVKPGASVKISCKTSGYTFTEYTMHWVKQSHGKSLEWIGGISPNIGGTSYNQKFKGKATLTVDKSSSTAYMELRSLTSEDSAVYYCARRGGSFDYWGQGTTLTVSSRTVAAPSVFIFPPSDEQLKSGTASVVCLLNNFYPREAKVQWKVDNALQSGNSQESVTEQDSKDSTYSLSSTLTLSKADYEKHKVYACEVTHQGLSSPVTKSFNRGEC", "chain 3": "DIVMTQSPATLSVTPGDRVSLSCRASQSISDYLHWYQQKSHESPRLLIKYASQSISGIPSRFSGSGSGSDFTLSINSVEPEDVGVYYCQNGHSFPLTFGAGTKLELKASTKGPSVFPLAPSSKSTSGGTAALGCLVKDYFPEPVTVSWNSGALTSGVHTFPAVLQSSGLYSLSSVVTVPSSSLGTQTYICNVNHKPSNTKVDKKVEPKSCDKTH", "notes": "CD19, Fc-enhanced Fc, NKp46(NKp46-3); also called ComparatorA_6"}, "B2": {"name": "scFv-IgAb-396 (bispecific antibody)", "chain 1": "not shown", "chain 2": "DIVMTQSPATLSLSPGERATLSCRSSKSLQNVNGNTYLYWFQQKPGQSPQLLIYRMSNLNSGVPDRFSGSGSGTEFTLTISSLEPEDFAVYYCMQHLEYPITFGAGTKLEIKRTVAAPSVFIFPPSDEQLKSGTASVVCLLNNFYPREAKVQWKVDNALQSGNSQESVTEQDSKDSTYSLSSTLTLSKADYEKHKVYACEVTHQGLSSPVTKSFNRGEC"}, "B3": {"name": "AIG-1scFv-6 (ComparatorB_2) (bispecific antibody, human IgG1, kappa)", "heavy 1": "not shown", "light": "DIVMTQSPATLSLSPGERATLSCRSSKSLQNVNGNTYLYWFQQKPGQSPQLLIYRMSNLNSGVPDRFSGSGSGTEFTLTISSLEPEDFAVYYCMQHLEYPITFGAGTKLEIKRTVAAPSVFIFPPSDEQLKSGTASVVCLLNNFYPREAKVQWKVDNALQSGNSQESVTEQDSKDSTYSLSSTLTLSKADYEKHKVYACEVTHQGLSSPVTKSFNRGEC", "heavy 2": "not shown", "notes": "CD19, wt Fc, NKG2D(ADI-27743)"}, "B4": {"name": "scFv-IgAb-395 (bispecific antibody)", "chain 1": "not shown", "chain 2": "DIVMTQSPATLSLSPGERATLSCRSSKSLQNVNGNTYLYWFQQKPGQSPQLLIYRMSNLNSGVPDRFSGSGSGTEFTLTISSLEPEDFAVYYCMQHLEYPITFGAGTKLEIKRTVAAPSVFIFPPSDEQLKSGTASVVCLLNNFYPREAKVQWKVDNALQSGNSQESVTEQDSKDSTYSLSSTLTLSKADYEKHKVYACEVTHQGLSSPVTKSFNRGEC"}, "B5": {"name": "AIG-1scFv-5 (ComparatorB_1) (bispecific antibody, human IgG1, kappa)", "heavy 1": "not shown", "light": "DIVMTQSPATLSLSPGERATLSCRSSKSLQNVNGNTYLYWFQQKPGQSPQLLIYRMSNLNSGVPDRFSGSGSGTEFTLTISSLEPEDFAVYYCMQHLEYPITFGAGTKLEIKRTVAAPSVFIFPPSDEQLKSGTASVVCLLNNFYPREAKVQWKVDNALQSGNSQESVTEQDSKDSTYSLSSTLTLSKADYEKHKVYACEVTHQGLSSPVTKSFNRGEC", "heavy 2": "not shown", "notes": "CD19, wt Fc, NKG2D(KYK-2.0)"}}, "key": {"[1]": {"molecular_target": "T1, recombinant human NKp46 expressed on the surface of CHO cells (human, UniProt O76036 22-304)", "T1 construct": "whole, on cells; also called huNKp46; CD355", "T1 sequence (O76036 22-304)": "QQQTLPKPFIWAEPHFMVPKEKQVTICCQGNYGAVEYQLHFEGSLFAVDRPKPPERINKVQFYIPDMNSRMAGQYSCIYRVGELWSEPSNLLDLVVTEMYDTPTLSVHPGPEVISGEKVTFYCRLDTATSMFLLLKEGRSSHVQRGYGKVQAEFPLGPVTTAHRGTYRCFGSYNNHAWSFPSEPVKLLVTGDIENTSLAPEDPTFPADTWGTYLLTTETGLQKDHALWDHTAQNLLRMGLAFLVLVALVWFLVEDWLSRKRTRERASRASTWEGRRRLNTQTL", "assay": "flow cytometry, CHO-huNKp46 cells, apparent KD; SD 2.8", "method": "(§1) The CHO cells were incubated with serial dilutions of the indicated trispecific constructs and control constructs at 37° C., and cell surface bound antibodies were detected by FITC-conjugated goat anti-human IgG Fc and flow cytometric analysis. Measured median fluorescence intensity values were used to calculate apparent affinities (KD) by non-linear regression."}, "[2]": {"molecular_target": "T2, recombinant human CD64 expressed on the surface of CHO cells (human, UniProt P12314 16-374)", "T2 construct": "whole, on cells; also called huCD64", "T2 sequence (P12314 16-374)": "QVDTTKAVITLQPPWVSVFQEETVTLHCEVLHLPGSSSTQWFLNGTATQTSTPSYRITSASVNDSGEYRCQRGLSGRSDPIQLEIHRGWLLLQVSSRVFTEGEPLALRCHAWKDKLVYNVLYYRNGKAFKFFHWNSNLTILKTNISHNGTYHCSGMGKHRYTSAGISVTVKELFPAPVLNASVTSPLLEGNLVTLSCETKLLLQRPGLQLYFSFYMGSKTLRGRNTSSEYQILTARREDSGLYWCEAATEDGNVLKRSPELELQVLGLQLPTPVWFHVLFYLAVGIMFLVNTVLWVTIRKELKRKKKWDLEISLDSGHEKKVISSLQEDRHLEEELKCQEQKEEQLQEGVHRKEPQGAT", "assay": "flow cytometry, CHO-huCD64 cells, apparent KD; SD 2.7", "method": "as §1"}, "[3]": {"molecular_target": "T3, recombinant human CD32A expressed on the surface of CHO cells (human, UniProt P12318 34-317)", "T3 construct": "whole, on cells; also called huCD32A", "T3 sequence (looked up)": "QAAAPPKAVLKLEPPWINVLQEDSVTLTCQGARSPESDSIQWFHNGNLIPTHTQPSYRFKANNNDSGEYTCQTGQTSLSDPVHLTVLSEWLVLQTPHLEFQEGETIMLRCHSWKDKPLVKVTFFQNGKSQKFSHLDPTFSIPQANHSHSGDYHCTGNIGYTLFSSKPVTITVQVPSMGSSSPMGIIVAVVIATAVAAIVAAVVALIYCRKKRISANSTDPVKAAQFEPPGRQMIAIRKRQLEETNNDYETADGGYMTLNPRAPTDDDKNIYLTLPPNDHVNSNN", "assay": "flow cytometry, CHO-huCD32A cells, apparent KD; SD 405.5", "method": "as §1"}, "[4]": {"molecular_target": "T4, recombinant human CD16A (48R/158F) expressed on the surface of CHO cells (human, UniProt P08637 17-254)", "T4 construct": "also called huCD16A; CD16A (158F)", "assay": "flow cytometry, CHO-huCD16A cells, apparent KD; SD n.a."}, "[5]": {"molecular_target": "T2, recombinant human CD64 expressed on the …", "assay": "flow cytometry, CHO-huCD64 cells, apparent KD; SD 6.6"}, "[6]": {"molecular_target": "T3, recombinant human CD32A expressed on …", "assay": "flow cytometry, CHO-huCD32A cells, apparent KD; SD 64.3"}, "[7]": {"molecular_target": "T1, recombinant human NKp46 expressed on …", "assay": "flow cytometry, CHO-huNKp46 cells, apparent KD; SD 3.7"}, "[8]": {"molecular_target": "T5, recombinant human NKG2D expressed on the surface of CHO cells (human, UniProt P26718 1-216)", "T5 construct": "whole, on cells; also called huNKG2D; CD314", "T5 sequence (looked up)": "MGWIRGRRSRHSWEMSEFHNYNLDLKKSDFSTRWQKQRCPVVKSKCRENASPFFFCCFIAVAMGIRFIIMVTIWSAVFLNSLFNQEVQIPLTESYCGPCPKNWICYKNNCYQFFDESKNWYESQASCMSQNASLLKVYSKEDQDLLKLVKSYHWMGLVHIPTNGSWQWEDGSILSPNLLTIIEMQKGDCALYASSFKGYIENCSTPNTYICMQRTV", "assay": "flow cytometry, CHO-huNKG2D cells, apparent KD; SD 6.8", "method": "as §1"}, "[9]": {"molecular_target": "T2, recombinant human CD64 expressed on the …", "assay": "flow cytometry, CHO-huCD64 cells, apparent KD; SD 7.7", "method": "as §1"}, "[10]": {"molecular_target": "T3, recombinant human CD32A expressed on …", "assay": "flow cytometry, CHO-huCD32A cells, apparent KD; SD n.a.", "method": "as §1"}, "[11]": {"molecular_target": "T3, recombinant human CD32A expressed on …", "assay": "flow cytometry, CHO-huCD32A cells, apparent KD; SD 2169.4"}, "[12]": {"molecular_target": "T2, recombinant human CD64 expressed on the …", "assay": "flow cytometry, CHO-huCD64 cells, apparent KD; SD 5.8"}, "[13]": {"molecular_target": "T1, recombinant human NKp46 expressed on …", "assay": "flow cytometry, CHO-huNKp46 cells, apparent KD; SD 1.9"}, "[14]": {"molecular_target": "T5, recombinant human NKG2D expressed on …", "assay": "flow cytometry, CHO-huNKG2D cells, apparent KD; SD 16.2", "method": "as §1"}, "[15]": {"molecular_target": "T2, recombinant human CD64 expressed on the …", "assay": "flow cytometry, CHO-huCD64 cells, apparent KD; SD 7.6", "method": "as §1"}}}
{"binder": "B1", "values": [{"measurement": "Kd", "setting": "[1]", "value": 45.8, "unit": "nM"}, {"measurement": "Kd", "setting": "[2]", "value": 12.6, "unit": "nM"}, {"measurement": "Kd", "setting": "[3]", "value": 1010, "unit": "nM"}]}
{"binder": "B2", "values": [{"measurement": "Kd", "setting": "[4]", "value": 5.19, "unit": "µM"}, {"measurement": "Kd", "setting": "[5]", "value": 34.1, "unit": "nM"}, {"measurement": "Kd", "setting": "[6]", "value": 374, "unit": "nM"}, {"measurement": "Kd", "setting": "[7]", "value": 9.8, "unit": "nM"}]}
{"binder": "B3", "values": [{"measurement": "Kd", "setting": "[8]", "value": 22.3, "unit": "nM"}, {"measurement": "Kd", "setting": "[9]", "value": 22.8, "unit": "nM"}, {"measurement": "Kd", "setting": "[10]", "value": 2530, "unit": "nM"}]}
{"binder": "B4", "values": [{"measurement": "Kd", "setting": "[11]", "value": 5.63, "unit": "µM"}, {"measurement": "Kd", "setting": "[12]", "value": 42.3, "unit": "nM"}, {"measurement": "Kd", "setting": "[13]", "value": 5.7, "unit": "nM"}]}
{"binder": "B5", "values": [{"measurement": "Kd", "setting": "[14]", "value": 28.5, "unit": "nM"}, {"measurement": "Kd", "setting": "[15]", "value": 27.4, "unit": "nM"}, {"measurement": "Kd", "setting": "[10]", "value": 2470, "unit": "nM"}]}
